Results on one molecule are retold here after paper PMC10975748 (2024).

The term Kd denotes a measure of binding affinity in units of concentration. Low values mean a tighter complex, high ones a looser complex.

This experiment concerns the target Kv1.2 (Homo sapiens, UniProt P16389). Kind of experiment: patch-clamp electrophysiology.

Kv1.2, sequence (P16389 whole entry): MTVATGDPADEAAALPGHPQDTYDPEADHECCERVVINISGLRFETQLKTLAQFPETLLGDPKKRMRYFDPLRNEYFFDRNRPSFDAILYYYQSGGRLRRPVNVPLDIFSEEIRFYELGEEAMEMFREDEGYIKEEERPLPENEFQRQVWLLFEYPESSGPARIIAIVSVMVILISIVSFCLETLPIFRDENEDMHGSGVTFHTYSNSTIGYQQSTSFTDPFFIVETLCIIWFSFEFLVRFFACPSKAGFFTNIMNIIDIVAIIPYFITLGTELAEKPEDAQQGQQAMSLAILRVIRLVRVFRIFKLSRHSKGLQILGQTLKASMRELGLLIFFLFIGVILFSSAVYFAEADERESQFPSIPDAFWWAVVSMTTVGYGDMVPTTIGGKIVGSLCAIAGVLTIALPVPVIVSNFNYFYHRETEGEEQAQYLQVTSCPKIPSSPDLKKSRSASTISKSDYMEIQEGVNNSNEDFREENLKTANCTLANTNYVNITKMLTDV

Regarding TFINHKCKSSSECLPACKAAIGRASGKCINSTCKCYY [Cm39], binding was characterised by a dissociation constant (Kd) of 65 nM.
